EP0835662A2
Values belong to the substance of their own block, whether it stands above or below them.

How the values were obtained:
[1] = molecular target: receptor with a moderately high affinity for Substance P on primary tumor cells of human colon adenocarcinoma (human); test: 125I-Substance P receptor-ligand assay on cells, Scatchard (LIGAND); culture PTC-1
[2] = molecular target: receptor with a moderately high affinity for Substance P on primary tumor cells of human colon adenocarcinoma (human); test: 125I-Substance P receptor-ligand assay on cells, Scatchard (LIGAND); culture PTC-2
[3] = molecular target: receptor with a moderately high affinity for Substance P on primary tumor cells of human colon adenocarcinoma (human); test: 125I-Substance P receptor-ligand assay on cells, Scatchard (LIGAND); culture PTC-3
[4] = molecular target: receptor with a moderately high affinity for Substance P on primary tumor cells of human colon adenocarcinoma (human); test: 125I-Substance P receptor-ligand assay on cells, Scatchard (LIGAND); culture PTC-4
[5] = molecular target: receptor with a moderately high affinity for Substance P on primary tumor cells of human colon adenocarcinoma (human); test: 125I-Substance P receptor-ligand assay on cells, Scatchard (LIGAND); culture PTC-5
[6] = molecular target: receptor with a moderately high affinity for Substance P on primary tumor cells of human colon adenocarcinoma (human); test: 125I-Substance P receptor-ligand assay on cells, Scatchard (LIGAND); culture PTC-6
[7] = molecular target: receptor with a moderately high affinity for Substance P on primary tumor cells of human colon adenocarcinoma (human); test: 125I-Substance P receptor-ligand assay on cells, Scatchard (LIGAND); culture PTC-7
[8] = molecular target: receptor with a moderately high affinity for Substance P on primary tumor cells of human colon adenocarcinoma (human); test: 125I-Substance P receptor-ligand assay on cells, Scatchard (LIGAND); culture PTC-8
[9] = molecular target: high-affinity receptor for bombesin on primary tumor cells of human colon adenocarcinoma (human); test: 125I-bombesin receptor-ligand assay on cells, Scatchard (LIGAND); culture PTC-1
[10] = molecular target: high-affinity receptor for bombesin on primary tumor cells of human colon adenocarcinoma (human); test: 125I-bombesin receptor-ligand assay on cells, Scatchard (LIGAND); culture PTC-2
[11] = molecular target: high-affinity receptor for bombesin on primary tumor cells of human colon adenocarcinoma (human); test: 125I-bombesin receptor-ligand assay on cells, Scatchard (LIGAND); culture PTC-3
[12] = molecular target: high-affinity receptor for bombesin on primary tumor cells of human colon adenocarcinoma (human); test: 125I-bombesin receptor-ligand assay on cells, Scatchard (LIGAND); culture PTC-4
[13] = molecular target: high-affinity receptor for bombesin on primary tumor cells of human colon adenocarcinoma (human); test: 125I-bombesin receptor-ligand assay on cells, Scatchard (LIGAND); culture PTC-5
[14] = molecular target: high-affinity receptor for bombesin on primary tumor cells of human colon adenocarcinoma (human); test: 125I-bombesin receptor-ligand assay on cells, Scatchard (LIGAND); culture PTC-6
[15] = molecular target: high-affinity receptor for bombesin on primary tumor cells of human colon adenocarcinoma (human); test: 125I-bombesin receptor-ligand assay on cells, Scatchard (LIGAND); culture PTC-7
[16] = molecular target: high-affinity receptor for bombesin on primary tumor cells of human colon adenocarcinoma (human); test: 125I-bombesin receptor-ligand assay on cells, Scatchard (LIGAND); culture PTC-8
[17] = molecular target: high-affinity receptor for somatostatin on primary tumor cells of human colon adenocarcinoma (human); test: 125I-somatostatin receptor-ligand assay on cells, Scatchard (LIGAND); culture PTC-1
[18] = molecular target: receptor with a moderately high affinity for somatostatin on primary tumor cells of human colon adenocarcinoma (human); test: as above
[19] = molecular target: high-affinity receptor for somatostatin on primary tumor cells of human colon adenocarcinoma (human); test: 125I-somatostatin receptor-ligand assay on cells, Scatchard (LIGAND); culture PTC-2
[20] = molecular target: receptor with a moderately high affinity for somatostatin on primary tumor cells of human colon adenocarcinoma (human); test: as above
[21] = molecular target: high-affinity receptor for somatostatin on primary tumor cells of human colon adenocarcinoma (human); test: 125I-somatostatin receptor-ligand assay on cells, Scatchard (LIGAND); culture PTC-3
[22] = molecular target: receptor with a moderately high affinity for somatostatin on primary tumor cells of human colon adenocarcinoma (human); test: as above
[23] = molecular target: high-affinity receptor for somatostatin on primary tumor cells of human colon adenocarcinoma (human); test: 125I-somatostatin receptor-ligand assay on cells, Scatchard (LIGAND); culture PTC-4
[24] = molecular target: receptor with a moderately high affinity for somatostatin on primary tumor cells of human colon adenocarcinoma (human); test: as above
[25] = molecular target: high-affinity receptor for somatostatin on primary tumor cells of human colon adenocarcinoma (human); test: 125I-somatostatin receptor-ligand assay on cells, Scatchard (LIGAND); culture PTC-5
[26] = molecular target: receptor with a moderately high affinity for somatostatin on primary tumor cells of human colon adenocarcinoma (human); test: as above
[27] = molecular target: high-affinity receptor for somatostatin on primary tumor cells of human colon adenocarcinoma (human); test: 125I-somatostatin receptor-ligand assay on cells, Scatchard (LIGAND); culture PTC-6
[28] = molecular target: receptor with a moderately high affinity for somatostatin on primary tumor cells of human colon adenocarcinoma (human); test: as above
[29] = molecular target: high-affinity receptor for somatostatin on primary tumor cells of human colon adenocarcinoma (human); test: 125I-somatostatin receptor-ligand assay on cells, Scatchard (LIGAND); culture PTC-7
[30] = molecular target: receptor with a moderately high affinity for somatostatin on primary tumor cells of human colon adenocarcinoma (human); test: as above
[31] = molecular target: high-affinity receptor for somatostatin on primary tumor cells of human colon adenocarcinoma (human); test: 125I-somatostatin receptor-ligand assay on cells, Scatchard (LIGAND); culture PTC-8
[32] = molecular target: receptor with a moderately high affinity for somatostatin on primary tumor cells of human colon adenocarcinoma (human); test: as above
[33] = molecular target: high-affinity receptor for VIP on primary tumor cells of human colon adenocarcinoma (human); test: 125I-VIP receptor-ligand assay on cells, Scatchard (LIGAND); culture PTC-1
[34] = molecular target: receptor with a moderately high affinity for VIP on primary tumor cells of human colon adenocarcinoma (human); test: as above
[35] = molecular target: high-affinity receptor for VIP on primary tumor cells of human colon adenocarcinoma (human); test: 125I-VIP receptor-ligand assay on cells, Scatchard (LIGAND); culture PTC-2
[36] = molecular target: receptor with a moderately high affinity for VIP on primary tumor cells of human colon adenocarcinoma (human); test: as above
[37] = molecular target: high-affinity receptor for VIP on primary tumor cells of human colon adenocarcinoma (human); test: 125I-VIP receptor-ligand assay on cells, Scatchard (LIGAND); culture PTC-3
[38] = molecular target: receptor with a moderately high affinity for VIP on primary tumor cells of human colon adenocarcinoma (human); test: as above
[39] = molecular target: high-affinity receptor for VIP on primary tumor cells of human colon adenocarcinoma (human); test: 125I-VIP receptor-ligand assay on cells, Scatchard (LIGAND); culture PTC-4
[40] = molecular target: receptor with a moderately high affinity for VIP on primary tumor cells of human colon adenocarcinoma (human); test: as above
[41] = molecular target: high-affinity receptor for VIP on primary tumor cells of human colon adenocarcinoma (human); test: 125I-VIP receptor-ligand assay on cells, Scatchard (LIGAND); culture PTC-5
[42] = molecular target: receptor with a moderately high affinity for VIP on primary tumor cells of human colon adenocarcinoma (human); test: as above
[43] = molecular target: high-affinity receptor for VIP on primary tumor cells of human colon adenocarcinoma (human); test: 125I-VIP receptor-ligand assay on cells, Scatchard (LIGAND); culture PTC-6
[44] = molecular target: receptor with a moderately high affinity for VIP on primary tumor cells of human colon adenocarcinoma (human); test: as above
[45] = molecular target: high-affinity receptor for VIP on primary tumor cells of human colon adenocarcinoma (human); test: 125I-VIP receptor-ligand assay on cells, Scatchard (LIGAND); culture PTC-7
[46] = molecular target: receptor with a moderately high affinity for VIP on primary tumor cells of human colon adenocarcinoma (human); test: as above
[47] = molecular target: high-affinity receptor for VIP on primary tumor cells of human colon adenocarcinoma (human); test: 125I-VIP receptor-ligand assay on cells, Scatchard (LIGAND); culture PTC-8
[48] = molecular target: receptor with a moderately high affinity for VIP on primary tumor cells of human colon adenocarcinoma (human); test: as above

Kd [1]: 154 nM | R(M/L) receptor number [1]: 1.85e-08 M/L | Kd [2]: 172 nM | R(M/L) receptor number [2]: 1.71e-08 M/L | Kd [3]: 134 nM | R(M/L) receptor number [3]: 1.49e-08 M/L | Kd [4]: 154 nM | R(M/L) receptor number [4]: 1.66e-08 M/L | Kd [5]: 21 nM | R(M/L) receptor number [5]: 6.2e-09 M/L | Kd [6]: 234 nM | R(M/L) receptor number [6]: 2.95e-08 M/L | Kd [7]: 26.2 nM | R(M/L) receptor number [7]: 7.48e-09 M/L | Kd [8]: 186 nM | R(M/L) receptor number [8]: 1.32e-08 M/L
Substance: Substance P (from UniProt P20366 58-68) (peptide)

Kd [9]: 0.439 nM | R(M/L) receptor number [9]: 2.24e-10 M/L | Kd [10]: 0.593 nM | R(M/L) receptor number [10]: 3.22e-10 M/L | Kd [11]: 0.569 nM | R(M/L) receptor number [11]: 2.97e-10 M/L | Kd [12]: 0.568 nM | R(M/L) receptor number [12]: 2.89e-10 M/L | Kd [13]: 0.462 nM | R(M/L) receptor number [13]: 3.35e-10 M/L | Kd [14]: 0.485 nM | R(M/L) receptor number [14]: 2.24e-10 M/L | Kd [15]: 0.67 nM | R(M/L) receptor number [15]: 2.55e-10 M/L | Kd [16]: 0.883 nM | R(M/L) receptor number [16]: 2.85e-10 M/L
Substance: bombesin (peptide)

Kd [17]: 0.323 nM | R(M/L) receptor number [17]: 6.01e-11 M/L | Kd [18]: 93.7 nM | R(M/L) receptor number [18]: 4.41e-09 M/L | Kd [19]: 0.17 nM | R(M/L) receptor number [19]: 8.99e-11 M/L | Kd [20]: 63.5 nM | R(M/L) receptor number [20]: 2.24e-09 M/L | Kd [21]: 1.15 nM | R(M/L) receptor number [21]: 1.06e-10 M/L | Kd [22]: 134 nM | R(M/L) receptor number [22]: 5.09e-09 M/L | Kd [23]: 0.0865 nM | R(M/L) receptor number [23]: 4.66e-11 M/L | Kd [24]: 56.4 nM | R(M/L) receptor number [24]: 2.75e-09 M/L | Kd [25]: 0.378 nM | R(M/L) receptor number [25]: 5.82e-11 M/L | Kd [26]: 15.4 nM | R(M/L) receptor number [26]: 1.24e-09 M/L | Kd [27]: 0.545 nM | R(M/L) receptor number [27]: 6.85e-11 M/L | R(M/L) receptor number [28]: 1.16e-09 M/L | Kd [29]: 1.11 nM | R(M/L) receptor number [29]: 9.81e-11 M/L | Kd [30]: 128 nM | R(M/L) receptor number [30]: 3.89e-09 M/L | Kd [31]: 0.964 nM | R(M/L) receptor number [31]: 1.74e-10 M/L | Kd [32]: 99.2 nM | R(M/L) receptor number [32]: 6.59e-09 M/L
Substance: somatostatin (from UniProt P61278 103-116) (peptide)

Kd [33]: 1.04 nM | R(M/L) receptor number [33]: 4.83e-11 M/L | Kd [34]: 633 nM | R(M/L) receptor number [34]: 1.78e-08 M/L | Kd [35]: 1.45 nM | R(M/L) receptor number [35]: 6.23e-11 M/L | Kd [36]: 423 nM | R(M/L) receptor number [36]: 1.03e-08 M/L | Kd [37]: 6.35 nM | R(M/L) receptor number [37]: 2.45e-10 M/L | Kd [38]: 1510 nM | R(M/L) receptor number [38]: 2.93e-08 M/L | Kd [39]: 11 nM | R(M/L) receptor number [39]: 2.75e-10 M/L | Kd [40]: 945 nM | R(M/L) receptor number [40]: 5.03e-08 M/L | Kd [41]: 19.5 nM | R(M/L) receptor number [41]: 5.29e-10 M/L | Kd [42]: 3510 nM | R(M/L) receptor number [42]: 8.72e-08 M/L | Kd [43]: 4.41 nM | R(M/L) receptor number [43]: 1.05e-10 M/L | Kd [44]: 1880 nM | R(M/L) receptor number [44]: 3.21e-08 M/L | Kd [45]: 1.49 nM | R(M/L) receptor number [45]: 6.12e-11 M/L | Kd [46]: 555 nM | R(M/L) receptor number [46]: 9.37e-09 M/L | Kd [47]: 1.78 nM | R(M/L) receptor number [47]: 1.5e-10 M/L | Kd [48]: 8420 nM | R(M/L) receptor number [48]: 8.49e-09 M/L
Substance: vasoactive intestinal peptide (VIP) (from UniProt P01282 125-152)
